# Laboratory results reported in publication PMC5913134, “The IL-33-PIN1-IRAK-M axis is critical for type 2 immunity in IL-33-induced allergic airway inflammation” (Nature Communications, 2018).
# B1: IL-33: Recombinant mouse IL-33 purchased from BioLegend (protein, UniProt Q8BVZ5 1-266, looked up)
# Interleukin-33: MRPRMKYSNSKISPAKFSSTAGEALVPPCKIRRSQQKTKEFCHVYCMRLRSGLTIRKETSYFRKEPTKRYSLKSGTKHEENFSAYPRDSRKRSLLGSIQAFAASVDTLSIQGTSLLTQSPASLSTYNDQSVSFVLENGCYVINVDDSGKDQEQDQVLLRYYESPCPASQSGDGVDGKKLMVNMSPIKDTDIWLHANDKDYSVELQRGDVSPPEQAFFVLHKKSSDFVSFECKNLPGTYIGVKDNQLALVEEKDESCNNIMFKLSKI
# Experiments:
# [1] = test system: CD3+ CD4+ T cells; assay: Lung CD3+ CD4+ T cells after IL-33 challenge; format: in vivo, mouse; settings: IL-33 intranasal, sorted lung T cells, n=3
# Experimental: Lungs were digested using Kollagenase D and dispase and the dendritic cells populations (CD11c^+ CD205^+ CD11b^+) were determined by staining the cells using the following antibodies: PE anti mouse CD11c (catalog number 117307), APC anti mouse CD205 (catalog number 138205), FITC anti mouse CD11b (catalog number 101205). For co stimulatory protein expression, FITC anti mouse CD40 (catalog number 124607), FITC anti mouse CD80 (catalog number 104705), FITC anti mouse CD86 (catalog number 105005) were used. […] Cells were analyzed using LSRII flow cytometer and FlowJo software. […]
# Supplementary Figure 6. […] ( b) The indicated lungs were digested and the CD3+ CD4+ cells were monitored and cell sorted using APC-CD3 and FITC-CD4 antibodies respectively, for further analysis. […] (c) Sorted CD3+ CD4+ cells from the indicated mice after PBS and IL-33 challenge were analyzed for IL-13 and IL-5 expression (n=3).
# (d) Quantification of figure 6E; Dendritic cell CD11b+ expression in WT, Pin1KO and IRAK-M KO mice lungs, either treated with IL-33 or PBS as before. (e) WT and IRAK-M KO mice were either treated with IL-33 or PBS, the lungs were digested and the CD11c+ cells were analyzed for the expression of costimulatory proteins CD40, CD80 and CD86. […]
# [2] = test system: IRAK-M; assay: IRAK-M protein levels in BMDCs; format: cell-based, mouse; settings: BMDC from WT and PIN1 KO mice, IL-33, time-dependent
# [3] = test system: CD11c^+ CD11b^+ CD205^+ cells; assay: Flow analysis of lung CD11c+ dendritic cells after IL-33 challenge; format: in vivo, mouse; settings: for change in CD11c^+ CD11b^+ CD205^+ cells: IL-33, n = 3
# Experimental: Male mice in each group, 3-5 weeks old were anesthetized using Isoflurane. The mice were treated intranasal with 200ng/mice/day for four continues days. By the fifth day the mice were killed by CO2 suffocation, and bronchial alveolar lavage fluid (BALF) was extracted using PBS. The lungs were extracted and fixed using 10% para formaldehyde. Immunofluresence of slide sections was performed. Slides were analyzed using anti-PIN1 antibodies and anti-IRAK-M antibodies or IgG as control and were counterstained using DAPI. In some cases, cells obtained from BALF were cytospined and the cells were fixed and stained in the same manner. For staining of the cells, Diff-Quick (Diff-Quik) Staining Protocol were used. All animal work was carried out in compliance with the ethical regulations approved by the Animal Care Committee, Beth Israel Deaconess Medical Center, Boston, MA, USA. The permission was granted to perform animal experiments by the Institutional Animal Care and Use Committee at Beth Israel Deaconess Medical Center, Boston, MA, USA.
# Lungs were digested using Kollagenase D and dispase and the dendritic cells populations (CD11c^+ CD205^+ CD11b^+) were determined by staining the cells using the following antibodies: PE anti mouse CD11c (catalog number 117307), APC anti mouse CD205 (catalog number 138205), FITC anti mouse CD11b (catalog number 101205). For co stimulatory protein expression, FITC anti mouse CD40 (catalog number 124607), FITC anti mouse CD80 (catalog number 104705), FITC anti mouse CD86 (catalog number 105005) were used. For T cell (CD3^+ CD4^+) population isolation, the cells were stained with APC anti mouse CD3^+ (catalog number 100235) FITC anti mouse CD4^+ (catalog number 100405) before the cells were cell sorted. Human BALF samples were stained with FITC anti human CD15 (catalog number 301903) or FITC anti human CD205 (catalog number 342206). All antibodies were purchased from Biolegend and diluted according to manufacture instruction (1:100 dilution). Cells were analyzed using LSRII flow cytometer and FlowJo software. For cytospin the cells were spun onto glass slides, air dried and fixed using 4%PFA and stained with the indicated antibodies.
# [4] = test system: IRAK-M; assay: IRAK-M phosphorylation in DC2.4 cells; format: cell-based, C57BL/6; settings: DC2.4; IL-33 100 ng/ml, 1 h, γ-32P labeling
# Experimental: Fig. 2 IL-33 induces IRAK-M phosphorylation and binding to PIN1. a GST PIN1 pulldown assay with DC2.4 cell extracts either non-treated or treated with IL-33 (100 ng/ml) or LPS (100ng/ml) for 1 h. […] The cells were washed with fresh medium and treated with 100 ng/ml IL-33 for the indicated times prior to IRAK-M immunoprecipitation. d DC2.4 cells stably expressing IRAK-M were treated with IL-33 and at the indicated time points were subjected to CO-IP using anti-PIN1 antibody and blotted for IRAK-M. e HEK293 cells were transfected with different IRAK-M constructs expressing the N’ terminal domain (aa1-220), the middle portion of the protein (aa220-440) or the C’ terminal domain (aa 440-630), and then treated with IL-33, followed by CO-IP for PIN1. f DC2.4 cells stably expressing IRAK-M were treated with IL-33 and subjected to GST or GST-PIN1 pull-down.
molecule,measurement,setting,value
B1,Il13 and -5 expression in CD3+ CD4+ T cells,[1],markedly induced expression
same,IRAK-M protein levels,[2],"increased IRAK-M protein levels in WT, but not PIN1 KO cells"
same,change in CD11c^+ CD11b^+ CD205^+ cells,[3]; IRAK-M KO mice,non significant (NS) increase
same,CD40 and CD80 overexpression in lung CD11c^+ cells,"[3]; IRAK-M KO mice, IL-33 treated, n=3",attenuated
same,change in CD11c^+ CD11b^+ CD205^+ cells,[3]; PIN1 KO mice,more moderate increase
same,CD40 and CD80 expression in lung CD11c^+ cells,"[3]; WT mice, IL-33 treated, n=3",elevated
same,induction of CD11c^+ CD11b^+ CD205^+ cells,"[3]; WT mice, IL-33 vs PBS, n = 3, P < 0.05",3 fold
same,IRAK-M phosphorylation,[4],IRAK-M was phosphorylated
